Laboratory results reported in paper PMC8307404, “Crystal Structure-Guided Design of Bisubstrate Inhibitors and Photoluminescent Probes for Protein Kinases of the PIM Family” (Molecules, 2021).
Square brackets hold non-standard residues; d marks the D form. Peptide text beside a SMILES is read from it. * marks the point of attachment. X3 = O=C(CCCCCNCc1nc2c(sc3cc(Br)cnc32)c(=O)[nH]1)*

Tests used:
Test in all cases: Kinase profiling (radiometric filter-binding)
Format in all cases: biochemical
ABL = ABL (Homo sapiens, UniProt P00519); conditions: 1 µM inhibitor, read-out: Residual activity, %
ABL, sequence (P00519 whole entry): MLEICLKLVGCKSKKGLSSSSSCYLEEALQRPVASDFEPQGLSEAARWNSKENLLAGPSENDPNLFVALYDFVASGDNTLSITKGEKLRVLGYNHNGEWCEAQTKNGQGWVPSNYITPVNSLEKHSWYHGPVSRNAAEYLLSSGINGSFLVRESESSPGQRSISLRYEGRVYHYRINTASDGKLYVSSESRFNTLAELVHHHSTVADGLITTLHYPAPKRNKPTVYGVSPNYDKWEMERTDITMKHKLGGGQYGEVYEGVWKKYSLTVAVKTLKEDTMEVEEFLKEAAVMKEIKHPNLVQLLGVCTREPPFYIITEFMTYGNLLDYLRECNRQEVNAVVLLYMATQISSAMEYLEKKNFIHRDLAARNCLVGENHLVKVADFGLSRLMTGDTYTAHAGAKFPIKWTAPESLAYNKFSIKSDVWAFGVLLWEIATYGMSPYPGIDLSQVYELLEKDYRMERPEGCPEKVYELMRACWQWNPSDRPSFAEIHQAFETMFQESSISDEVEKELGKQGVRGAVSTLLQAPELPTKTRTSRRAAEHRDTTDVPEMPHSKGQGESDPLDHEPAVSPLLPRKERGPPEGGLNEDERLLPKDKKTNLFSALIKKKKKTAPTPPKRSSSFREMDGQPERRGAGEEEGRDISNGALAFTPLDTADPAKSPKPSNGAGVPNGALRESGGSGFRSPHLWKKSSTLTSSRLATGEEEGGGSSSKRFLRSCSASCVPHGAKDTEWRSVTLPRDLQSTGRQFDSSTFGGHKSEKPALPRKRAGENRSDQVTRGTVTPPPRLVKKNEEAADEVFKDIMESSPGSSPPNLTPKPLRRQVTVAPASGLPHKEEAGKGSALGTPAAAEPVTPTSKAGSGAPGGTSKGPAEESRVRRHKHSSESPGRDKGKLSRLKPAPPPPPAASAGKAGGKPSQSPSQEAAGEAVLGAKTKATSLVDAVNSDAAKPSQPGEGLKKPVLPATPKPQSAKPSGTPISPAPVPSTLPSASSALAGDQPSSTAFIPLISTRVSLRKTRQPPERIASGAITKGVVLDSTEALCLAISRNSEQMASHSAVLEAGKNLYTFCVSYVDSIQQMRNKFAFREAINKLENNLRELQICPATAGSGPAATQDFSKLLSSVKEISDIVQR
Outline: (§1)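 Human kinases were tested in a radiometric filter-binding panel with ATP at or below each enzyme's KM. Inhibitors were present at a final concentration of 1 µM, and residual activity was reported as a percentage of the uninhibited control.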

GCK = molecular target: T1, GCK (Homo sapiens, UniProt Q12851); conditions: 1 µM inhibitor, read-out: Residual activity, %
T1 sequence (Q12851 1-820): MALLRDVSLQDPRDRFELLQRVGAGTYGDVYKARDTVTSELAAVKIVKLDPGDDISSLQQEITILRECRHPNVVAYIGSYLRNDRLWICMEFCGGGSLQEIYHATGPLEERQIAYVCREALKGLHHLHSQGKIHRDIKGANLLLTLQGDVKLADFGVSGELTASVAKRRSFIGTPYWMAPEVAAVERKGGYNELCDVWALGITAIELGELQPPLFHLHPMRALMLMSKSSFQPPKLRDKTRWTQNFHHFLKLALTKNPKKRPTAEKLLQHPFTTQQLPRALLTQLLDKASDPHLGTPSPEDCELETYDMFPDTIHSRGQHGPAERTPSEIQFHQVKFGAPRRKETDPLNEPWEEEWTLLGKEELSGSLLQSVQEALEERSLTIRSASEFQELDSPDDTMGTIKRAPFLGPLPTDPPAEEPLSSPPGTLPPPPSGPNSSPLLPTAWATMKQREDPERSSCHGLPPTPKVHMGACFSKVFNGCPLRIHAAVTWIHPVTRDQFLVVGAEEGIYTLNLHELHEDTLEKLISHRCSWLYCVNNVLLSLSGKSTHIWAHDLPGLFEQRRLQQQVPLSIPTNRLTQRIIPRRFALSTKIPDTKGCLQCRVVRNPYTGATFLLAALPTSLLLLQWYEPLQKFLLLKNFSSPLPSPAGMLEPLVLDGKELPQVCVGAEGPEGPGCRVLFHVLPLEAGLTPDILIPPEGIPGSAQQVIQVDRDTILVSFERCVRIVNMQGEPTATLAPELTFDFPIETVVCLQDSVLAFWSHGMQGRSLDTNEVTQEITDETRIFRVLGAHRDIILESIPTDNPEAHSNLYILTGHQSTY
Outline: as §1

GSK3 = GSK3 (Homo sapiens, UniProt P49841); conditions: GSK3 (Greek letter lost), 1 µM inhibitor; read-out: Residual activity, %
GSK3, sequence (P49841 whole entry): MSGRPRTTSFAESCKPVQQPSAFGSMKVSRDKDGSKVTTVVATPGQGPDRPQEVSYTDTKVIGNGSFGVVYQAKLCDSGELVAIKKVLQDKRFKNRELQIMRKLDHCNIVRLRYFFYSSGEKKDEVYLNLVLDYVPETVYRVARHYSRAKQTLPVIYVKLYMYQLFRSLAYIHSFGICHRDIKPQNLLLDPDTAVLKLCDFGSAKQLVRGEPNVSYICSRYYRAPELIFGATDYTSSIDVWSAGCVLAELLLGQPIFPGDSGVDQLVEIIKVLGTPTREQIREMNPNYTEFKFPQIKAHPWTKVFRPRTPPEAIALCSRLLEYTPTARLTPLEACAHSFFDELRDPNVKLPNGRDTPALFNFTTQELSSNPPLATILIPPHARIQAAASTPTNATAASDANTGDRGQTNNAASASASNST
Outline: as §1

MLK3 = MLK3 (Homo sapiens, UniProt Q16584); conditions: MLK3, 1 µM inhibitor; read-out: Residual activity, %
MLK3, sequence (Q16584 whole entry): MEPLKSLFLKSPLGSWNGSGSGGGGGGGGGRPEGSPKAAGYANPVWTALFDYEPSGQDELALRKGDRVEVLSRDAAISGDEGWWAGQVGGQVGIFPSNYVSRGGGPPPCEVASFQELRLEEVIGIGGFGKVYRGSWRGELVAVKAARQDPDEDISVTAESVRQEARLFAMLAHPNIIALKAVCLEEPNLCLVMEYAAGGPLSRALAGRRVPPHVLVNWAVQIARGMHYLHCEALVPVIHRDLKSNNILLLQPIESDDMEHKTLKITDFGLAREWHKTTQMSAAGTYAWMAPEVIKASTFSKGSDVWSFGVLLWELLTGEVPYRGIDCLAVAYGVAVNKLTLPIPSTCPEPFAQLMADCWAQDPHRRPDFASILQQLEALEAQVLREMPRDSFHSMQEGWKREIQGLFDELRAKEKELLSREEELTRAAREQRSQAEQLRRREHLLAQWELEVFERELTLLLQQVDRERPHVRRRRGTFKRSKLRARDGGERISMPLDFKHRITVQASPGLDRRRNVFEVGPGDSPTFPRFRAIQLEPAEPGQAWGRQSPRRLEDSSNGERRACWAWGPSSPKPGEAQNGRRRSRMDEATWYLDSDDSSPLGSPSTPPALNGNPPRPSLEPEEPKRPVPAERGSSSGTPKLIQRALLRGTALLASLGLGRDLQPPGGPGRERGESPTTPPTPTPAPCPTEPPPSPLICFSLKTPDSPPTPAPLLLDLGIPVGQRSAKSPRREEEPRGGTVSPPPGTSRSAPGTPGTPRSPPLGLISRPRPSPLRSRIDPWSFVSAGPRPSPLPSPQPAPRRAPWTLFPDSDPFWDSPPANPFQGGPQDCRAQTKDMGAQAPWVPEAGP
Outline: as §1

MST3 = MST3 (Homo sapiens, UniProt Q9Y6E0); conditions: MST3, 1 µM inhibitor; read-out: Residual activity, %
MST3, sequence (Q9Y6E0 whole entry): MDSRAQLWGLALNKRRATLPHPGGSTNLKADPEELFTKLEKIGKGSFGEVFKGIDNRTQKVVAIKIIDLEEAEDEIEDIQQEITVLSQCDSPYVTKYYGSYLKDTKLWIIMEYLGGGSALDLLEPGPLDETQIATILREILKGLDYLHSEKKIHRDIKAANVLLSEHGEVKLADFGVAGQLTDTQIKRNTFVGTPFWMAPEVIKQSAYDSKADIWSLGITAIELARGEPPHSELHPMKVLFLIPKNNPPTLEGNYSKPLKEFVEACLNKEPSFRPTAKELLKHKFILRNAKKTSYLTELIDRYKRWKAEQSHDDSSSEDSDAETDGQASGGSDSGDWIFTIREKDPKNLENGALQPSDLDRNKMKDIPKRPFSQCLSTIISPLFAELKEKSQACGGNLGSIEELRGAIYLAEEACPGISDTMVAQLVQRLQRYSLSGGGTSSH
Outline: as §1

PKC = PKC (Homo sapiens, UniProt P17252); conditions: first of two PKC lines (Greek letter lost), 1 µM inhibitor, read-out: Residual activity, %
Outline: as §1

VEG-FR = molecular target: T2, VEG-FR (Homo sapiens, UniProt P17948); conditions: 1 µM inhibitor, read-out: Residual activity, %
T2 sequence (P17948 784-1338 limits assumed): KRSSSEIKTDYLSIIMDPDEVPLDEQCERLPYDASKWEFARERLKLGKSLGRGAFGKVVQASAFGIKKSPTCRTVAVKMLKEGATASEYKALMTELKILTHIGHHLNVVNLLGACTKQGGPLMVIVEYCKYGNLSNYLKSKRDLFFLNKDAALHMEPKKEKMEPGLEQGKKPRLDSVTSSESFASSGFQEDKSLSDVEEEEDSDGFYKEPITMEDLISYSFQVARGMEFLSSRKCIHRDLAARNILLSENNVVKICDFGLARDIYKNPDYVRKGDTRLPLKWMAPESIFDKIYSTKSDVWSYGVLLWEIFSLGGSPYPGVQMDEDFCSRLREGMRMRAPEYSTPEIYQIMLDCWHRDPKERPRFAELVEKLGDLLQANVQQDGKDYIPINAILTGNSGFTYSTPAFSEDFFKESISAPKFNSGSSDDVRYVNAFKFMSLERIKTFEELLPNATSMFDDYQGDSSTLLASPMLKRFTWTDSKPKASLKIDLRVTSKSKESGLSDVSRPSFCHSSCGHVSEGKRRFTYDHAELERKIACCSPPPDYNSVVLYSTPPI
Outline: as §1

ZAP70 = molecular target: T3, ZAP70 (Homo sapiens, UniProt P43403); conditions: ZAP70, 1 µM inhibitor; read-out: Residual activity, %
T3 sequence (P43403 1-619): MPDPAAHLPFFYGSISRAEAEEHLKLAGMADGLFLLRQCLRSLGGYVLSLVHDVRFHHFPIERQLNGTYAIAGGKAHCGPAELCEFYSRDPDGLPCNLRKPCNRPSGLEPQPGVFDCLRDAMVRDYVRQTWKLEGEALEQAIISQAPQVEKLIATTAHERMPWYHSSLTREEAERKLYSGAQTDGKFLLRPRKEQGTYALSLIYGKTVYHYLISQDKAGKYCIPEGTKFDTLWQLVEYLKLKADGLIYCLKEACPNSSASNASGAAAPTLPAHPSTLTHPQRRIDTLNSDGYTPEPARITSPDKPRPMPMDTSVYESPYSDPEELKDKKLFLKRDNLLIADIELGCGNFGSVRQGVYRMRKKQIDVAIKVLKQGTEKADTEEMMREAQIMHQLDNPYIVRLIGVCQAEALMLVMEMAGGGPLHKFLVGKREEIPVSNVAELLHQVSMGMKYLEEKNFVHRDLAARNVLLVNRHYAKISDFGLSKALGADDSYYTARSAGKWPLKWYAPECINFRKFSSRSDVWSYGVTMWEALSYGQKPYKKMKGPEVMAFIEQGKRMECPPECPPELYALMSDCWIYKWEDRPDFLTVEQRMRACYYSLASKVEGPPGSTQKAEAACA
Outline: as §1

p38 MAPK = p38 MAPK (Homo sapiens, UniProt Q15759); conditions: second of four lines (Greek letter lost), 1 µM inhibitor, read-out: Residual activity, %
p38 MAPK, sequence (Q15759 whole entry): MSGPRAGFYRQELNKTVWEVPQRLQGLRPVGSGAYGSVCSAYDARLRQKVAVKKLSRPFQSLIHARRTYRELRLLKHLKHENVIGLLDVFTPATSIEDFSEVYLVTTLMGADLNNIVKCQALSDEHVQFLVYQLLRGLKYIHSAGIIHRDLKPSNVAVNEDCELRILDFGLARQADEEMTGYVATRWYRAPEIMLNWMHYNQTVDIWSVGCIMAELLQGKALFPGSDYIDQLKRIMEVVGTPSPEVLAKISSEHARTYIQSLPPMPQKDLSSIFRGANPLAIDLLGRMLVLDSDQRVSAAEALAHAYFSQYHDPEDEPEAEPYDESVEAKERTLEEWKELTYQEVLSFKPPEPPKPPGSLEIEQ
Outline: as §1

Structure (SMILES) | remaining activity at 1 µM (ABL) | remaining activity at 1 µM (GCK) | remaining activity at 1 µM (GSK3) | remaining activity at 1 µM (MLK3) | remaining activity at 1 µM (MST3) | remaining activity at 1 µM (PKC) | remaining activity at 1 µM (VEG-FR) | remaining activity at 1 µM (ZAP70) | remaining activity at 1 µM (p38 MAPK)
N=C(N)NCCC[C@@H](NC(=O)CCCCCNC(=O)Cn1cnc2c(I)c(I)c(I)c(I)c21)C(=O)N[C@H](CCCNC(=N)N)C(=O)N[C@H](CCCNC(=N)N)C(=O)N[C@H](CCCNC(=N)N)C(=O)N[C@H](CCCNC(=N)N)C(=O)N[C@H](CCCNC(=N)N)C(=O)N[C@H](CCCCN)C(N)=O [ARC-3125, TIBI-CH2-C(=O)-Ahx-(D-Arg)6-D-Lys-NH2] | 106% | 56 ± 4% | 140 ± 13% | 98 ± 2% | 51 ± 24% | 81 ± 9% | 95 ± 41% | 105 ± 8% | 80 ± 6%
N=C(N)NCCC[C@@H](NC(=O)CCCCCNCc1nc2c(sc3cc(Br)cnc32)c(=O)[nH]1)C(=O)N[C@H](CCCNC(=N)N)C(=O)N[C@H](CCCNC(=N)N)C(=O)N[C@H](CCCNC(=N)N)C(=O)N[C@H](CCCNC(=N)N)C(=O)N[C@H](CCCNC(=N)N)C(=O)N[C@H](CCCCN)C(N)=O [ARC-3126, BPTP-Ahx-(D-Arg)6-D-Lys-NH2] (X3-[dR][dR][dR][dR][dR][dR][dK]-NH2) | 116 ± 5% | 88 ± 14% | 80% | 117 ± 10% | 102 ± 5% | 115 ± 17% | 85% | 83 ± 30% | 94 ± 4%
N=C(N)NCCC[C@@H](NC(=O)CNC(=O)[C@@H](CCCNC(=N)N)NC(=O)[C@@H](CCCNC(=N)N)NC(=O)CCCCCCCNCc1nc2c(sc3cc(Br)cnc32)c(=O)[nH]1)C(=O)N[C@H](CCCCN)C(N)=O [Compound 1, BPTP-Aoc-(D-Arg)2-Gly-D-Arg-D-Lys-NH2] | 94 ± 8% | 112% | 110 ± 12% | 105 ± 5% | 104 ± 3% | 112 ± 2% | 110 ± 9% | 95 ± 21% | 108 ± 14%
N=C(N)NCCC[C@@H](NC(=O)CNC(=O)[C@@H](CCCNC(=N)N)NC(=O)[C@@H](CCCNC(=N)N)NC(=O)CCCCCCCNCc1nc2c(sc3ccc(Br)cc32)c(=O)[nH]1)C(=O)N[C@H](CCCCN)C(N)=O [Compound 2, BBTP-Aoc-(D-Arg)2-Gly-D-Arg-D-Lys-NH2] | 89 ± 5% | 114 ± 2% | 75 ± 8% | 107 ± 1% | 112 ± 8% | 102 ± 4% | 96 ± 3% | 87 ± 7% | 113 ± 4%
N=C(N)NCCC[C@@H](NC(=O)CNC(=O)[C@@H](CCCNC(=N)N)NC(=O)[C@@H](CCCNC(=N)N)NC(=O)Cn1cc(CNCc2nc3c(sc4ccc(Br)cc43)c(=O)[nH]2)nn1)C(=O)N[C@H](CCCCN)C(N)=O [Compound 3, BBTP-Amt-(D-Arg)2-Gly-D-Arg-D-Lys-NH2] | 91 ± 12% | 97 ± 7% | 64 ± 8% | 94 ± 2% | 98 ± 1% | 110 ± 5% | 90 ± 5% | 53 ± 14% | 100 ± 6%
